Substitutions are numbered along the chain they refer to.
T1: glucocorticoid-induced tumor necrosis factor receptor (GITR) (human, UniProt Q9Y5U5 26-241)
T1 chain: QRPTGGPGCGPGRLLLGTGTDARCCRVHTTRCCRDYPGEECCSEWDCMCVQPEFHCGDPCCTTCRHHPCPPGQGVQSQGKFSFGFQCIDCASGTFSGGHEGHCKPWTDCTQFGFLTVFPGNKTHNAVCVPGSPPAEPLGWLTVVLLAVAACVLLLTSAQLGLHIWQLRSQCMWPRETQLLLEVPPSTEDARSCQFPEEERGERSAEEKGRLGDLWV

T2: glucocorticoid-induced tumor necrosis factor receptor (GITR) (human, UniProt Q9Y5U5 26-241)
T2 construct: whole, on cells; also called GITR expressing 293T cells
T2 sequence (looked up): T1 chain

B1: mAb #13-169 (antibody, V domains shown)
VH: EVQLVQSGAEVKRPGASLKVSCKASGYTFTSHYIHWVRQAPGQGLEWMGWINTGNGDTRYSQRFQGRVTVTRDTSASTVYMELSSLRSEDTAVYYCARESSSSWFVAFDVWGQGTTVTVSS
VL: QPVLTQPPSVSLAPGQTARITCSEKNIRSKRVHWYQQKPGQAPVLVMYSDNGRRSGIPDRFSGSNSGNTATLTITRVEAGDEGDFYCQVWDPITDQVVFGGGTKLTVLG
B2: mAb #11-126 (antibody, V domains shown)
VH: EVQLVESGAEVKKPGASVKVSCKASGYTFTGYYMHWVRQAPGQGLEWLGWVNPHSGGTNYAQKFQGRVTMTRDTSISTAYMELSRLRSDDTAVYYCARETDISANYHFDYWGQGTLVTVSS
VL: QSALTQPASVSGSPGQSITISCTGTSSDVGSYNAVSWYQHHPGKAPKLMIYEVSKRPSGVSNRFSGSKSGNTASLTISGLRAEDEADYYCATWDDSLKGPVFGGGTKLTVLG
B3: mAb #15-68 (antibody, V domains shown)
VH: EVQLVQSGAEVKKPGASVNVSCKASGYTFTGYYMHWVRQAPGQGLEWMGWINPNSGGTNYAQKFQGRVTVTTDTSNSTAYMELNRLKSDDTAVYYCAREGSGDLDSLYMDVWGKGTMVTVSS
VL: SYELTQPPSVSVAPGQTARITCGANNIGSKSVHWYQQKPGQAPVLVVYDDSDRPSGIPERFSGSNSGNTATLTITRVEAGDEADYYCQLWDGGSDVVFGGGTKLTVLG
B4: mAb #14-182 (antibody, V domains shown)
VH: QVQLVQSGAEVKQPGSSVKVSCKASGYTFTGYYMHWVRQAPGEGLEWLGWINPHSGGTNYAQKFQGRVTITADKSTSTAYMELSSLRSEDTAVYYCAREIVVVTAPAAAAMDVWGQGTLVTVSS
VL: QSVLTQPPSASGSPGQSVTISCTGSSSDVAIYDRVSWYQQPPGTAPKLILYDVHDRPSGVPDRFSGSKSGNTASLTISGLQAEDEADYYCSSYTTSGTFVFGSGTKVTVLG
B5: mAb #10-116 (antibody, V domains shown)
VH: EVQLVQSGADVKKPGASVKVSCKASGYTFTGYYIHWVRQAPGQGLEWMGWINPNSGGTNYAQKFQGRVTMTRDTSISTAYMELSRLRSDDTAVYFCVREVKDYYYYMDVWGRGTTVTVSS
VL: NFMLTQPHSVSESPGKTVTISCTRSSGSIASNSVQWYLQRPGSAPTTLIFDNKQRPSGVPDRFSGSIDSSSNSASLSISGLTTEDEADYFCQSYDDSEQVVFGGGTKLTVLS
B6: mAb #7-192 (antibody, V domains shown)
VH: EVQLVESGAEVKKPGASVKVSCKTSGYTFTDHYIHWVRQAPGQGLEWMGWINPSSGGTEYAQKFQGRVTMTRDTPISTAYMDLSGLRSDDTAVYYCARETIGGWNALDVWGQGTLVTVSS
VL: MPVLTQPPSVSVAPGQTARITCGGHKIGTKSVHWYQQKPGQAPVLVVYDDRDRPSGIPERFSGSNSGGTATLTISRVEAGDEADYYCQVWDSNSDHVVFGGGTKLTVLS
B7: mAb #5-139 (antibody, V domains shown)
VH: B6 VH with E6Q, L115T
VL: QSVLTQPPSASGSPGQRVTMSCSGSSSTIGRHSVNWYQQLPGTAPKLLIYANNQRPSGVPGRFSASKSDTSASLAISGLRSEDEANYYCAAWDDSLSGVLFGGGTKVTVLG
B8: mAb #1-81 (antibody, V domains shown)
VH: B6 VH
VL: QPVLTQPPSASGTPGQRVTISCSGSSSNIGINTVNWYQQLPRTPPKLLIYTNNQRPSGVPDRFSGSKSDTSASLAISGLQSEDEADYYCAAWDDTLNGPLFGGGTKVTVLG
notes: Found as scFv by phage display
B9: mAb #17-60 (antibody, V domains shown)
VH: B6 VH
VL: B8 VL
B10: mAb #12-46 (antibody, V domains shown)
VH: EVQLVQSGAEVKKPGASVKVSCKASGYTFTGYYMHWVRQAPGQGLEWMGWINPKTGDTNYAQKFQGRVALSRDTSFNTAYMDLSSLRSDDTAVYYCAREGLSTSSPLDYWGQGTLVTVSS
VL: QPGLTQPPSVSVAPGQSAKITCGENELATNIVHWYQQKPGQAPVLVIYHDNDRPSGIPERFSGSNAGNTATLTISRVEAGDEADFYCQLWDSASDQVVFGGGTTLTVLG
B11: mAb 3-167 (antibody, V domains shown)
VH: EVQLVQSGSELKKPGASVKVSCKASGYTFTGYYMHWVRQAPGQGLEWMGWINPNSGGTNYAQKFQGRVTVTTDTSTSTAYMELRSLRSDDTAVYYCAREGVHSDAFDVWGQGTTVTVSS
VL: ETTLTQSPATLSVSPGERATLSCRASQSVYTNLAWYQQKPGQAPSLLIYGASSRATGIPDRFSGSGSGTDFTLTISRLEPEDFAVYYCQQYGSSHFTFGPGTKVDIK

Target: T1, glucocorticoid-induced tumor necrosis …
Test: BLI
B1 was tested, and the Kd was 3.21 nM.
In the case of B2, the Kd is reported as 2.8 nM.
With B3 the Kd was 3.81 nM.
B4 gave a Kd of 1.82 nM.
For B5, the Kd was 4.77 nM.
In the case of B6, the Kd is reported as 3.13 nM.
For B7, the Kd was 0.42 nM.
Work on B8 yielded a Kd of 1.66 nM.
B9 showed a Kd of 1.14 nM.
In the case of B10, the Kd is reported as 5.07 nM.
B11 showed a Kd of 0.855 nM.

What follows are binders tested against T2, glucocorticoid-induced tumor necrosis … (assay: flow cytometry on GITR-expressing 293T cells, FITC anti-human Fc detection).
B1: binds.
B2: binds.
B4: binds.
B5: binds.
B6: binds.
B7: binds.
B8: binds.
B10: binds.
B11: binds.

Target: T1, glucocorticoid-induced tumor necrosis …
Test: flow cytometry, GITR-expressing 293T cells
For B1, the EC50 was 47 nM.
Binder B2 has an EC50 of 13 nM.
B3 was tested, and the EC50 was 26.5 nM.
For B4, the EC50 was 20.5 nM.
Binder B5 has an EC50 of 28.3 nM.
Work on B6 yielded an EC50 of 19.3 nM.
For B7, the EC50 was 16.8 nM.
B8 showed an EC50 of 22.4 nM.
Binder B9 has an EC50 of 15.1 nM.
B10 gave an EC50 of 72.4 nM.
With B11 the EC50 was 28.2 nM.

— patent US20170304444A1 (Dana-Farber, published 2017)
